T1: CydD, subunit of the heterodimeric ABC transporter CydDC (Escherichia coli, UniProt P29018 1-588)
T1 sequence: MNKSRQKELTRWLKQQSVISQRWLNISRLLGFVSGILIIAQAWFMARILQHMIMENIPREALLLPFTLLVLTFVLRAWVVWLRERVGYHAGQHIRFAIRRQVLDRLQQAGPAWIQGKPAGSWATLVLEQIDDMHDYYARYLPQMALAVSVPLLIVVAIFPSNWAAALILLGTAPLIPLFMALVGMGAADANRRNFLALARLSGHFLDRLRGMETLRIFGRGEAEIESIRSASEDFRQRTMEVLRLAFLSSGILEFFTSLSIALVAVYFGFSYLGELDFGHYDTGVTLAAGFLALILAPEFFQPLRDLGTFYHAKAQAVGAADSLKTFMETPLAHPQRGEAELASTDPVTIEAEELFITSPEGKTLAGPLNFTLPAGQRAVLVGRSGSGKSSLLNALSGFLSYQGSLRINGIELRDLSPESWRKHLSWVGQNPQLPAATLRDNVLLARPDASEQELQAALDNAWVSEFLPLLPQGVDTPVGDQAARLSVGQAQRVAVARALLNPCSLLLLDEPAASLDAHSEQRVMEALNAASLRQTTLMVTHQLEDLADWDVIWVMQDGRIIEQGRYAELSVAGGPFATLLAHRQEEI


molecular target: T1, CydD, subunit of the heterodimeric ABC …; assay: cryo-EM structure

Row | binding result | Binder
1 | binds | CydC, subunit of the heterodimeric ABC transporter CydDC (wild type) (natural protein, Escherichia coli) MRALLPYLALYKRHKWMLSLGIVLAIVTLLASIGLLTLSGWFLSASAVAGVAGLYSFNYMLPAAGVRGAAITRTAGRYFERLVSHDATFRVLQHLRIYTFSKLLPLSPAGLARYRQGELLNRVVADVDTLDHLYLRVISPLVGAFVVIMVVTIGLSFLDFTLAFTLGGIMLLTLFLMPPLFYRAGKSTGQNLTHLRGQYRQQLTAWLQGQAELTIFGASDRYRTQLENTEIQWLEAQRRQSELTALSQAIMLLIGALAVILMLWMASGGVGGNAQPGALIALFVFCALAAFEALAPVTGAFQHLGQVIASAVRISDLTDQKPEVTFPDTQTRVADRVSLTLRDVQFTYPEQSQQALKGISLQVNAGEHIAILGRTGCGKSTLLQQLTRAWDPQQGEILLNDSPIASLNEAALRQTISVVPQRVHLFSATLRDNLLLASPGSSDEALSEILRRVGLEKLLEDAGLNSWLGEGGRQLSGGELRRLAIARALLHDAPLVLLDEPTEGLDATTESQILELLAEMMREKTVLMVTHRLRGLSRFQQIIVMDNGQIIEQGTHAELLARQGRYYQFKQGL
2 | binds | CydC H85A (histidine to alanine exchange at position 85), subunit of CydDC^H85A (natural protein, Escherichia coli) MRALLPYLALYKRHKWMLSLGIVLAIVTLLASIGLLTLSGWFLSASAVAGVAGLYSFNYMLPAAGVRGAAITRTAGRYFERLVSADATFRVLQHLRIYTFSKLLPLSPAGLARYRQGELLNRVVADVDTLDHLYLRVISPLVGAFVVIMVVTIGLSFLDFTLAFTLGGIMLLTLFLMPPLFYRAGKSTGQNLTHLRGQYRQQLTAWLQGQAELTIFGASDRYRTQLENTEIQWLEAQRRQSELTALSQAIMLLIGALAVILMLWMASGGVGGNAQPGALIALFVFCALAAFEALAPVTGAFQHLGQVIASAVRISDLTDQKPEVTFPDTQTRVADRVSLTLRDVQFTYPEQSQQALKGISLQVNAGEHIAILGRTGCGKSTLLQQLTRAWDPQQGEILLNDSPIASLNEAALRQTISVVPQRVHLFSATLRDNLLLASPGSSDEALSEILRRVGLEKLLEDAGLNSWLGEGGRQLSGGELRRLAIARALLHDAPLVLLDEPTEGLDATTESQILELLAEMMREKTVLMVTHRLRGLSRFQQIIVMDNGQIIEQGTHAELLARQGRYYQFKQGL
3 | binds | CydC E500Q (Walker B glutamate to glutamine mutant), subunit of CydDC^E500Q (natural protein, Escherichia coli) MRALLPYLALYKRHKWMLSLGIVLAIVTLLASIGLLTLSGWFLSASAVAGVAGLYSFNYMLPAAGVRGAAITRTAGRYFERLVSHDATFRVLQHLRIYTFSKLLPLSPAGLARYRQGELLNRVVADVDTLDHLYLRVISPLVGAFVVIMVVTIGLSFLDFTLAFTLGGIMLLTLFLMPPLFYRAGKSTGQNLTHLRGQYRQQLTAWLQGQAELTIFGASDRYRTQLENTEIQWLEAQRRQSELTALSQAIMLLIGALAVILMLWMASGGVGGNAQPGALIALFVFCALAAFEALAPVTGAFQHLGQVIASAVRISDLTDQKPEVTFPDTQTRVADRVSLTLRDVQFTYPEQSQQALKGISLQVNAGEHIAILGRTGCGKSTLLQQLTRAWDPQQGEILLNDSPIASLNEAALRQTISVVPQRVHLFSATLRDNLLLASPGSSDEALSEILRRVGLEKLLEDAGLNSWLGEGGRQLSGGELRRLAIARALLHDAPLVLLDQPTEGLDATTESQILELLAEMMREKTVLMVTHRLRGLSRFQQIIVMDNGQIIEQGTHAELLARQGRYYQFKQGL
